Assays:
[1] = tested on: microglial cultures isolated from the retina and brain or the BV2 cells; assay: COX2 immunostaining in LPS-treated microglial cultures (retina, brain, BV2 cells); format: cell-based, mouse; settings: IGFBPL1 added 6 hr after LPS
Description: For primary retinal microglia isolation, microglia cells were isolated from mice retina using magnetic CD11b microbead (BD, 558013). The purification protocol was following manufacture's instructions. Briefly, the papain dissociated retinal cells were resuspended into diluted BD IMag™ Buffer (BD, Cat. No. 552362). After 6-8 mins washing at 300 g, 50 ul of magnetic CD11b microbeads were added for every 10^7 total cells and then incubated for 30 mins at 6-12° C. Then bring the BD IMag-particle labeling volume up to 1-8×10^7 cells/ml with 1×BD IMag™ buffer, and immediately place the tube on the Cell Separation Magnet (BD, Cat. No. 552311). Carefully aspirate off the supernatant after 6-8 minutes incubation at room temperature, and then repeat two times washing. The positive fractions left in the tube were then collected for culture. Around 3000 cells per well were seeded in 8-well Nunc® Lab-Tek™ II Chamber Slide™ (Thermo Scientific, Cat. No. 154534PK). The isolated microglial cells were cultured at 37° C. with 5% C02 in DMEM with 10% FBS and 50 ng/ml rmCSF1 (PeproTech, Cat. No. 315-02).
For primary mouse brain microglia isolation, we optimized our protocol based previously reported protocol^2. First step was to collect brain after perfusing mice with saline. […]

DBA/2J mice = assay: DBA/2J chronic glaucoma mouse model, monthly intravitreal administration; format: in vivo; settings: 10 m-old DBA/2J mice
Description: Adult (10-12 weeks old) male and female C57BL/6J (B6) (The Jackson Laboratory, 000664), Cx3cr1^GFP (The Jackson Laboratory, 005582), DBA/2J mice (The Jackson Laboratory, 000671) Igf1r^(lax) inducible knockout mice (The Jackson Laboratory, 012251) as well as Cx3cr1^tm2.1(cre/ERT2) mice were obtained from the Jackson Laboratory. Igf1r^(lax) mice were crossed with Cx3cr1^tm2.1(cre/ERT2) mice to generated Igf-1r specific knock out on microglia after 3 consecutive days injection of 100 mg/kg tamoxifen to mice. IGFBPL1 deficiency mice at a C57BL/6J genetic background (Knockout Mouse Project Repository, University of California at Davis) were used in following experiments. Mice of both genders were randomized into control and experimental groups. All experimental procedures and use of animals were approved and monitored by the Institute's Animal Care Committee and conform to the standards of the National Institute of Health and the Association for Research in Vision and Ophthalmology.
Adult mice were anesthetized by i.p. injection of ketamine (120 mg/kg)/xylazine (20 mg/kg) mixture using 25 G needle. […] Mice will be placed on a warm pad and monitored every 15 minutes until awake and fully sternal.
The adult mice were dark adapted in a dark adaptation chamber overnight before conducting ERG. […] The pSTR was measured from the baseline to the peak of the positive deflection. […]

B1: IGFBPL1: insulin-like growth factor binding protein like protein 1; recombinant protein (R&D system, 4130-BL) (protein)
chain: LGLRDAGRRHPECSPCQQDRCPAPSPCPAPWISARDECGCCARCLGAEGASCGGPVGSRCGPGLVCASRASGTAPEGTGLCVCAQRGAVCGSDGRSYSSICALRLRARHAPRAHHGHLHKARDGPCEFAPVVLMPPRDIHNVTGTQVFLSCEVKAVPTPVITWKKVKHSPEGTEGLEELPGDHVNIAVQVRGGPSDHETTSWILINPLRKEDEGVYHCHAANAIGEAQSHGTVTVLDLNRYKSLYSSVPGDLL
B1 was tested, and the “LPS-induced COX2 upregulation” value [1] was “suppressed”, the “Survived axon in optic nerve” value (DBA/2J mice; versus vehicle-treated group) was “significantly preserved” and the “RGC density and pSTR amplitude” value (DBA/2J mice; after four monthly doses) was “effectively protect RGCs and functions”.

Reference: US20250051458A1, “Methods for Treating Neurodegeneration Targeting IGF1/IGF1R” (The Schepens Eye Research Institute, Inc., priority 2021, published 2025)
